According to a protein production outcome set (Wang et al. 2014):

Test: label from the status in PepcDB records
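Further: failed if final PepcDB status was selected cloned or expressed and not failed if soluble or beyond.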

| Sequence | protein production |
| --- | --- |
| AAIILHEIYGINAHIQRAGHEWMTRGFDIYIPALFPHHTPFRYEQQEEAYRHFSANVGFDPAVVTTLLHELRTQYETLIVVGYSVGATLAWLSAASGLCDGVICYYGSRIRQYLHLAPLCPTLVIIARYEPAFDPLAMRQTLEKRPRVQCKMYDARHGFCDADSATFDAALSHQVMDDVSAFIRDI | failed |
| AAIRHITTGTYIARIREEYQQTEVKPELQPMKEALARMTDRAEALIAFVTEQKDQELLDFQARRLVEMTAHAVFGHLLMLAANDDDSFRQSAEVYLRYGQAEQEKIDSYVRAFRPEELTFYSRCSRPE | not failed |
| ADGILVVDLKGNIEFCNQQFLKMWGIAPGFIDSHNDTETIQYVLNQLKNPEEFLKQIKELYNNPKQESFDELHFKDGKIFERYSQPHWLDN | failed |
| ADWPDRFNLRKPFEKLLYSGSRTGFRLASERSAKQAKGPRKADPDGLFDLSFSDDQQMLVDMLEGFALEVLRPLAHDADAEASLPAELLNQALELGLTHYGVGEVHGGMAGERTTVTTALIAEALAKGDLTLAAALLVPLSAANCIRRWGSPSQQAQWLPAFVSEEGAPLTAIAVNEPSLLFDPQKLATRARRKGSHYLLSGEKCLVLRGLEASRLIVAAKTDEGPALFLVEASAKGVERRAEPAMGLKAGGTARLRLKSVKVPADNRLAAEHFDYRAFLDHASLAWCALALGTGQAALDYVIAYCNEREAFGEPISHRQGVAFMVADIAIELDAMRLMVWRACALAERGQPFQREAYLARLLCAEKAMKIGTDAVQLLGGHGFTKEHPAERWYR | failed |
| AEEKKEDEFKTIKIEKLDGGITKLVLNRPDRLNTISPEVLDEIDRAITQLWNDKDTRVIVITGAGDRAFSAGADLGGSIITHPFDFLEHNRKGERVFTRLREIPKPVIAAINGYALGGGLEIAMNCDIRLAKKSAVLGLPEVGLGILPGWSGTQRLVKLVGISRAMQLALTGERITAEEAERWGLVNKVFDDDKFEEEVMNYAKNIAERCAPISMALIKRLINKGGEVPMDIGLEWECTAAGLLFATEDMREGISAFLRKDKPQFKGR | failed |
| AEIDTSSIVEMVQGAEDAPVEVIEYASYTCPHCAAFHEGPYKKLKADFIDTGKVRFIYREVYFDRYGLWASMVARCAGPEKFFGISDLIYKGQAEWSRAGGPAEIAEELRKIGRLAGIENDKLEACLGDATKAQTLVAWYQEHATRDDINSTPSFMINGKKVENQAYDGFKALIEAELGN | not failed |
| AEIYNKDGNKVDLYGKAVGLHYFSKGNGENSYGGNGDMTYARLGFKGETQINSDLTGYGQWEYNFQGNNSEGADAQTGNKTRLAFAGLKYADVGSFDYGRNYGVVYDALGYTDMLPEFGGDTAYSDDFFVGRVGGVATYRNSNFFGLVDGLNFAVQYLGKNERDTARRSNGDGVGGSISYEYEGFGIVGAYGAADRTNLQEAQPLGNGKKAEQWATGLKYDANNIYLAANYGETRNATPITNKFTNTSGFANKTQDVLLVAQYQFDFGLRPSIAYTKSKAKDVEGIGDVDLVNYFEVGATYYFNKNMSTYVDYIINQIDSDNKLGVGSDDTVAVGIVYQF | not failed |
| AEPVLGDDGLYQLDWYLQSFLDLKEDLEGATAKGKRFAILWGLKGCPYCKKLHDVHMRDPAIESYIRDNFEIVHLNHIGAREVTDFDGSKLSEKAFAQAYGIRFTPSLQFFPESADGLAAKKPQDREVARMPGLLEPPEFLAMFKYVREKGYQSM | failed |
| AESLSGLSLKLVKKEPRQLELTWAGSRPRNPGGNLSYELHVLNQDEEWHQMVLEPRVLLTKLQPDTTYIVRVRTLTPLGPGPFSPDHEFRTSPP | not failed |
| AGGRERRVAVLFCDLRDFTRIAEHRLPYDTVFLLNRYFEVVGEAVEGSGGVVDKFIGDGALAIFGLKTPLPEACRQALSAAARLSQGIRALNQTFEGELEQPLRLAIGLHAGPAIIGEMGYGQATSLTVVGDTINTASRLEGLAKEHDVELAVSAELVERAGLSFEGHRRLEIGLRGRKATLETWIIGDAAQLSLSLP | failed |
| AGNRASNQGNSQPQQKYTVMSGTPEKILEHFLETIRLEATLNEATDSVLNDFIMMHCVFMPNTQLCPALVAHYHAQPSQGTEQEKMDYALNNKRRVIRLVLQWAAMYGDLLQEDDVSMAFLEEFYVSVSDDARM | failed |
